Assay results as given in patent US20090192084A1.
Each block holds one binder with its values, some of them ahead of it.

How the values were obtained:
p97-Myc = p97-Myc co-IP, 293 cells, MudPIT MS
VCIP135 (human) = target: T1, VCIP135 (human) (UniProt Q96JH7); assay: Flag co-IP, 293 cells, MudPIT MS
T1 sequence (looked up): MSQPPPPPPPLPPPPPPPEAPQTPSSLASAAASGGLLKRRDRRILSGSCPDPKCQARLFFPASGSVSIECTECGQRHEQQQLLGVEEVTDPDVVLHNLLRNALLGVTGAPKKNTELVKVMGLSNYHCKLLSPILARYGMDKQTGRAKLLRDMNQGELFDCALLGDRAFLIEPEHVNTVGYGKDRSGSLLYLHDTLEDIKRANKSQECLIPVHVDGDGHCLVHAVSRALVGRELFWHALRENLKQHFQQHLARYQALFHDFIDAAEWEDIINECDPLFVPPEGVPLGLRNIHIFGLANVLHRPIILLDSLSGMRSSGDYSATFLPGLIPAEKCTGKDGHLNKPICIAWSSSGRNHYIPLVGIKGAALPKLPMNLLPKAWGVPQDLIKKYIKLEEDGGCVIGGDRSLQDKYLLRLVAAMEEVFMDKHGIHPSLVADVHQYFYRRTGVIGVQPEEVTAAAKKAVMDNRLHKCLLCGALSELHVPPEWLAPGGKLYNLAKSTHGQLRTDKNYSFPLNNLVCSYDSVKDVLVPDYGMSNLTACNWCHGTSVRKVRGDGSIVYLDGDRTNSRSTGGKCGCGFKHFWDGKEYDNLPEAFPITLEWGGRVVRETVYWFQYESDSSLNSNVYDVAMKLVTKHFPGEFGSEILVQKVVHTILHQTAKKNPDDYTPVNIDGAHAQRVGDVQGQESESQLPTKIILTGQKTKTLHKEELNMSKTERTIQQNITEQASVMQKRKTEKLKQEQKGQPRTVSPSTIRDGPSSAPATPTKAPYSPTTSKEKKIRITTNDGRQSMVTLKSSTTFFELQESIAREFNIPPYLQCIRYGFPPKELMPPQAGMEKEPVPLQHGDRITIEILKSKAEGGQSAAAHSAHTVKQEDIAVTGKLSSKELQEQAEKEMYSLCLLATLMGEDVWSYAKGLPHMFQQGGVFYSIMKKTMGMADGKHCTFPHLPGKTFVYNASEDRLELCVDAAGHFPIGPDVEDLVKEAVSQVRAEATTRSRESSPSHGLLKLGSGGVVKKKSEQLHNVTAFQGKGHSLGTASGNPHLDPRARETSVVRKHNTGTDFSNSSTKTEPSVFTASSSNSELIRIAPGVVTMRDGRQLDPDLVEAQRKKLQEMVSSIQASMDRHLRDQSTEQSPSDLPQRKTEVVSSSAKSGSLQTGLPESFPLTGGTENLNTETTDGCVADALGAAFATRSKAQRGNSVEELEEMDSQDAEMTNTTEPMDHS

endogenous UFD1 (human) = target: T2, endogenous UFD1 (human) (UniProt Q92890); assay: Flag co-IP, 293 cells, MudPIT MS
T2 sequence (looked up): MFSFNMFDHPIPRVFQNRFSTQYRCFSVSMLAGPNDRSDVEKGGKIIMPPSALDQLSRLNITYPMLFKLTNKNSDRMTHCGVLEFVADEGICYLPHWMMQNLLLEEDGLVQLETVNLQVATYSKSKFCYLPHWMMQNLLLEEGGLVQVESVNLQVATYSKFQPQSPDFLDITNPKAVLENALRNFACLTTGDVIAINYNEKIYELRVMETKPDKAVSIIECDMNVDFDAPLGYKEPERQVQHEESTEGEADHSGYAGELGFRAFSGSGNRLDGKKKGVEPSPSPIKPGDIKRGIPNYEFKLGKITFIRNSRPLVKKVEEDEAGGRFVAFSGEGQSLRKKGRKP

endogenous p97 (human) = endogenous p97 (human) (UniProt P55072); assay: Flag co-IP, 293 cells, MudPIT MS
Cullin 2 (human) [1] = target: Cullin 2 (human) (UniProt Q13617); assay: Flag co-IP, MudPIT MS, MG132
Cullin 2 (human) [2] = target: Cullin 2 (human) (UniProt Q13617); assay: Flag co-IP, MudPIT MS, DMSO

Sequence of p97-Myc (Q01853 2-806): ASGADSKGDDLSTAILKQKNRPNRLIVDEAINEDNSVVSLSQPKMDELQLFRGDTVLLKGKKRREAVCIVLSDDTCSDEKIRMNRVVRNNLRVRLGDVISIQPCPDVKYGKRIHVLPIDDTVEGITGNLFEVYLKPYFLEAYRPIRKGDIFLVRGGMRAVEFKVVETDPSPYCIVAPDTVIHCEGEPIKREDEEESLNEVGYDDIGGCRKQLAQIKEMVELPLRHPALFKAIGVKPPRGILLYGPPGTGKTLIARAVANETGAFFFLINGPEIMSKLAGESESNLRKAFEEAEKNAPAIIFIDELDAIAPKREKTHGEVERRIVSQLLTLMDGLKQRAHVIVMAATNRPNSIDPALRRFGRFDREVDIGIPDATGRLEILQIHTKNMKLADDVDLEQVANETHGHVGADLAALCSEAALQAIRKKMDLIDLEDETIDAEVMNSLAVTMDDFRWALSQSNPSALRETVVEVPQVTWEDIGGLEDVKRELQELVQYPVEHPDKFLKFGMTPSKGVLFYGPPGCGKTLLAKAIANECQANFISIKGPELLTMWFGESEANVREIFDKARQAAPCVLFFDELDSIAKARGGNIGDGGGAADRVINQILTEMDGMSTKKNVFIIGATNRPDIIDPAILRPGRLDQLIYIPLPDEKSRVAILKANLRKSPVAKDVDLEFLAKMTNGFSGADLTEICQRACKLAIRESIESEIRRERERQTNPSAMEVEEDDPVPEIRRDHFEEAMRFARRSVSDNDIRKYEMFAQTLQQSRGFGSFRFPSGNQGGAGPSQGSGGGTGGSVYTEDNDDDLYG
Sequence of endogenous p97 (human) (P55072 2-806 limits assumed): as the sequence (Q01853 2-806) above
Sequence of Cullin 2 (human) (Q13617 whole entry): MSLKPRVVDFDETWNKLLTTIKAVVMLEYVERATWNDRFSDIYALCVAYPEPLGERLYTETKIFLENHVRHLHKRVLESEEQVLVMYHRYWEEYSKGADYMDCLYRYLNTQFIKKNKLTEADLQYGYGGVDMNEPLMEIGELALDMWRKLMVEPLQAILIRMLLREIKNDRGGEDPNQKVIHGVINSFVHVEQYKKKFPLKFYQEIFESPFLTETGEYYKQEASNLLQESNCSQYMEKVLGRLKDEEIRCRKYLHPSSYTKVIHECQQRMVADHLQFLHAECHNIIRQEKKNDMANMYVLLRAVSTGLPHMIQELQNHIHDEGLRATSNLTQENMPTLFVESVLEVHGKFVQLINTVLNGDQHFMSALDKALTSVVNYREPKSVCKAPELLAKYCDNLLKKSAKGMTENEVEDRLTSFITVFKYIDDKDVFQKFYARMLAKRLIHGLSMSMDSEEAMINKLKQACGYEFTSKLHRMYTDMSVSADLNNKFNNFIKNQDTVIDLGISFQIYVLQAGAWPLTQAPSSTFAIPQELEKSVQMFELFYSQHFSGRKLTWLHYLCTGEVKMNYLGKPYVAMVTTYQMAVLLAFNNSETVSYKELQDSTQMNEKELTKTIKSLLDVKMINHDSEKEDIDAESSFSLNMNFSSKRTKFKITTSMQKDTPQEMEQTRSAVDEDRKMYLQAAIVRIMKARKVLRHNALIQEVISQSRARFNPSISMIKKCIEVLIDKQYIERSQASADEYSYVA

B3: Flag-NPL4 (protein, UniProt Q8TAT6 2-608, looked up, species assumed)
Nuclear protein localization protein 4 homolog: AESIIIRVQSPDGVKRITATKRETAATFLKKVAKEFGFQNNGFSVYINRNKTGEITASSNKSLNLLKIKHGDLLFLFPSSLAGPSSEMETSVPPGFKVFGAPNVVEDEIDQYLSKQDGKIYRSRDPQLCRHGPLGKCVHCVPLEPFDEDYLNHLEPPVKHMSFHAYIRKLTGGADKGKFVALENISCKIKSGCEGHLPWPNGICTKCQPSAITLNRQKYRHVDNIMFENHTVADRFLDFWRKTGNQHFGYLYGRYTEHKDIPLGIRAEVAAIYEPPQIGTQNSLELLEDPKAEVVDEIAAKLGLRKVGWIFTDLVSEDTRKGTVRYSRNKDTYFLSSEECITAGDFQNKHPNMCRLSPDGHFGSKFVTAVATGGPDNQVHFEGYQVSNQCMALVRDECLLPCKDAPELGYAKESSSEQYVPDVFYKDVDKFGNEITQLARPLPVEYLIIDITTTFPKDPVYTFSISQNPFPIENRDVLGETQDFHSLATYLSQNTSSVFLDTISDFHLLLFLVTNEVMPLQDSISLLLEAVRTRNEELAQTWKRSEQWATIEQLCSTVGGQLPGLHEYGAVGGSTHTATAAMWACQHCTFMNQPGTGHCEMCSLPRT
modifications: N-terminal Flag tag
sequence count (VCIP135 (human)): 2
sequence coverage (VCIP135 (human)): 2.5%
spectrum count (VCIP135 (human)): 2
sequence count (endogenous UFD1 (human)): 14
sequence coverage (endogenous UFD1 (human)): 37.9%
spectrum count (endogenous UFD1 (human)): 22
sequence count (endogenous p97 (human)): 79
sequence coverage (endogenous p97 (human)): 70.4%
spectrum count (endogenous p97 (human)): 414

B5: Flag-UBXD8 (protein, UniProt Q96CS3 1-445, looked up, not shown: small tags and cut ends)
chain: MAAPEERDLTQEQTEKLLQFQDLTGIESMDQCRHTLEQHNWNIEAAVQDRLNEQEGVPSVFNPPPSRPLQVNTADHRIYSYVVSRPQPRGLLGWGYYLIMLPFRFTYYTILDIFRFALRFIRPDPRSRVTDPVGDIVSFMHSFEEKYGRAHPVFYQGTYSQALNDAKRELRFLLVYLHGDDHQDSDEFCRNTLCAPEVISLINTRMLFWACSTNKPEGYRVSQALRENTYPFLAMIMLKDRRMTVVGRLEGLIQPDDLINQLTFIMDANQTYLVSERLEREERNQTQVLRQQQDEAYLASLRADQEKERKKREERERKRRKEEEVQQQKLAEERRRQNLQEEKERKLECLPPEPSPDDPESVKIIFKLPNDSRVERRFHFSQSLTVIHDFLFSLKESPEKFQIEANFPRRVLPCIPSEEWPNPPTLQEAGLSHTEVLFVQDLTDE
abundance factor (AF) (Cullin 2 (human) [1]): 10.3
sequence count (Cullin 2 (human) [1]): 8
spectrum count (Cullin 2 (human) [1]): 38
abundance factor (AF) (Cullin 2 (human) [2]): 2.4
sequence count (Cullin 2 (human) [2]): 4
spectrum count (Cullin 2 (human) [2]): 12

B6: Flag-SAKS1 (protein, UniProt Q04323 1-297, looked up, not shown: small tags and cut ends)
chain: MAELTALESLIEMGFPRGRAEKALALTGNQGIEAAMDWLMEHEDDPDVDEPLETPLGHILGREPTSSEQGGLEGSGSAAGEGKPALSEEERQEQTKRMLELVAQKQREREEREEREALERERQRRRQGQELSAARQRLQEDEMRRAAEERRREKAEELAARQRVREKIERDKAERAKKYGGSVGSQPPPVAPEPGPVPSSPSQEPPTKREYDQCRIQVRLPDGTSLTQTFRAREQLAAVRLYVELHRGEELGGGQDPVQLLSGFPRRAFSEADMERPLQELGLVPSAVLIVAKKCPS
abundance factor (AF) (Cullin 2 (human) [1]): 5.5
sequence count (Cullin 2 (human) [1]): 4
spectrum count (Cullin 2 (human) [1]): 11
abundance factor (AF) (Cullin 2 (human) [2]): 3.7
sequence count (Cullin 2 (human) [2]): 3
spectrum count (Cullin 2 (human) [2]): 4

B7: Flag-p47 (protein, UniProt O35987 1-370, looked up, not shown: small tags and cut ends)
chain: MAEERQDALREFVAVTGAEEDRARFFLESAGWDLQIALASFYEDGGDEDIVTISQATPSSVSRGTAPSDNRVTSFRDLIHDQDEEEEEEEGQRFYAGGSERSGQQIVGPPRKKSPNELVDDLFKGAKEHGAVAVERVTKSPGETSKPRPFAGGGYRLGAAPEEESAYVAGERRRHSGQDVHVVLKLWKTGFSLDNGDLRSYQDPSNAQFLESIRRGEVPAELRRLAHGGQVNLDMEDHRDEDFVKPKGAFKAFTGEGQKLGSTAPQVLNTSSPAQQAENEAKASSSILINEAEPTTNIQIRLADGGRLVQKFNHSHRISDIRLFIVDARPAMAATSFVLMTTFPNKELADENQTLKEANLLNAVIVQRLT
sequence count (VCIP135 (human)): 14
sequence coverage (VCIP135 (human)): 17.6%
spectrum count (VCIP135 (human)): 15

The next lines start with the values.

sequence count (p97-Myc): 19
sequence coverage (p97-Myc): 52.2%
spectrum count (p97-Myc): 153
B1: endogenous p47 (protein, human, UniProt Q9UNZ2 1-370, looked up)
chain: MAAERQEALREFVAVTGAEEDRARFFLESAGWDLQIALASFYEDGGDEDIVTISQATPSSVSRGTAPSDNRVTSFRDLIHDQDEDEEEEEGQRFYAGGSERSGQQIVGPPRKKSPNELVDDLFKGAKEHGAVAVERVTKSPGETSKPRPFAGGGYRLGAAPEEESAYVAGEKRQHSSQDVHVVLKLWKSGFSLDNGELRSYQDPSNAQFLESIRRGEVPAELRRLAHGGQVNLDMEDHRDEDFVKPKGAFKAFTGEGQKLGSTAPQVLSTSSPAQQAENEAKASSSILIDESEPTTNIQIRLADGGRLVQKFNHSHRISDIRLFIVDARPAMAATSFILMTTFPNKELADESQTLKEANLLNAVIVQRLT

sequence count (p97-Myc): 2
sequence coverage (p97-Myc): 19.5%
spectrum count (p97-Myc): 2
B2: endogenous SAKS1 (protein, human, UniProt Q04323 2-297, looked up)
chain: AELTALESLIEMGFPRGRAEKALALTGNQGIEAAMDWLMEHEDDPDVDEPLETPLGHILGREPTSSEQGGLEGSGSAAGEGKPALSEEERQEQTKRMLELVAQKQREREEREEREALERERQRRRQGQELSAARQRLQEDEMRRAAEERRREKAEELAARQRVREKIERDKAERAKKYGGSVGSQPPPVAPEPGPVPSSPSQEPPTKREYDQCRIQVRLPDGTSLTQTFRAREQLAAVRLYVELHRGEELGGGQDPVQLLSGFPRRAFSEADMERPLQELGLVPSAVLIVAKKCPS

sequence count (p97-Myc): 4
sequence coverage (p97-Myc): 19.3%
spectrum count (p97-Myc): 5
B4: endogenous UBXD4 (protein, human, UniProt P68543 1-259, looked up)
chain: MKDVDNLKSIKEEWVCETGSDNQPLGNNQQSNCEYFVDSLFEEAQKVSSKCVSPAEQKKQVDVNIKLWKNGFTVNDDFRSYSDGASQQFLNSIKKGELPSELQGIFDKEEVDVKVEDKKNEICLSTKPVFQPFSGQGHRLGSATPKIVSKAKNIEVENKNNLSAVPLNNLEPITNIQIWLANGKRIVQKFNITHRVSHIKDFIEKYQGSQRSPPFSLATALPVLRLLDETLTLEEADLQNAVIIQRLQKTASFRELSEH

sequence count (p97-Myc): 11
sequence coverage (p97-Myc): 33.7%
spectrum count (p97-Myc): 12
B8: endogenous UBXD8 (protein, human, UniProt Q96CS3 2-445, looked up)
chain: AAPEERDLTQEQTEKLLQFQDLTGIESMDQCRHTLEQHNWNIEAAVQDRLNEQEGVPSVFNPPPSRPLQVNTADHRIYSYVVSRPQPRGLLGWGYYLIMLPFRFTYYTILDIFRFALRFIRPDPRSRVTDPVGDIVSFMHSFEEKYGRAHPVFYQGTYSQALNDAKRELRFLLVYLHGDDHQDSDEFCRNTLCAPEVISLINTRMLFWACSTNKPEGYRVSQALRENTYPFLAMIMLKDRRMTVVGRLEGLIQPDDLINQLTFIMDANQTYLVSERLEREERNQTQVLRQQQDEAYLASLRADQEKERKKREERERKRRKEEEVQQQKLAEERRRQNLQEEKERKLECLPPEPSPDDPESVKIIFKLPNDSRVERRFHFSQSLTVIHDFLFSLKESPEKFQIEANFPRRVLPCIPSEEWPNPPTLQEAGLSHTEVLFVQDLTDE

sequence count (p97-Myc): 6
sequence coverage (p97-Myc): 32.3%
spectrum count (p97-Myc): 7
B9: endogenous p37 (protein, human, UniProt Q14CS0 2-331, looked up)
chain: AEGGGPEPGEQERRSSGPRPPSARDLQLALAELYEDEVKCKSSKSNRPKATVFKSPRTPPQRFYSSEHEYSGLNIVRPSTGKIVNELFKEAREHGAVPLNEATRASGDDKSKSFTGGGYRLGSSFCKRSEYIYGENQLQDVQILLKLWSNGFSLDDGELRPYNEPTNAQFLESVKRGEIPLELQRLVHGGQVNLDMEDHQDQEYIKPRLRFKAFSGEGQKLGSLTPEIVSTPSSPEEEDKSILNAVVLIDDSVPTTKIQIRLADGSRLIQRFNSTHRILDVRNFIVQSRPEFAALDFILVTSFPNKELTDESLTLLEADILNTVLLQQLK
